Experimental data reported in the supplement of paper PMC9170038.

Tested on: MS2 coat protein
Assay: apparent KD of MS2 coat protein; designed switch direction (-1 OFF switch, 1 ON switch): -1; higher = weaker reporter binding
Method in brief: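 The apparent KD reported per design is the median over clusters of curve fits to normalised cluster fluorescence. The RNA switches were transcribed on Illumina chips by stalled E. coli RNA polymerase. SNAP-549-labelled MS2 coat protein was titrated from 0.7 or 1.5 nM, doubling up to 3 µM, in Tris-HCl pH 7.5 buffer containing KCl, MgCl2, BSA, DTT, tRNA and Tween-20, with no input, 200 uM small-molecule ligand, or an oligonucleotide input.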

[1] = Eterna round: R95, input ligand: FMN 200 uM
[2] = Eterna round: R95, input ligand: microRNA oligo, concentration not stated
[3] = Eterna round: R95, input ligand: none
[4] = input ligand: microRNA oligo, concentration not stated

Sequence | apparent KD of MS2 coat protein [1] | apparent KD of MS2 coat protein [2] | apparent KD of MS2 coat protein [3] | apparent KD of MS2 coat protein (input ligand: FMN 200 uM) | apparent KD of MS2 coat protein [4] | apparent KD of MS2 coat protein (input ligand: none)
AGUAACCGUCACGAAAGUGAUGGUUACGCAAGCAAUGAAACAUGAGGAUCACCCAUGUCCUCAUUUGCUCGUCUUAU [Sensor 3 - 41] (puzzle: Sensor v3, turn-off variant 2) | 24.6 nM | 347 nM | 25.7 nM | – | – | –
AGUAACUAUCACGAAAGUGAUAGUUACAAUAGCAAGUGAACAUGAGGAUCACCCAUGUCCUCGUUUGCUCGUCUUAU [Sensor 3 - 21] (puzzle: Sensor v3, turn-off variant 2) | 134 nM | 418 nM | 136 nM | – | – | –
AGUAACUAUCACGAAAGUGAUAGUUACACAAGCAGUGAUACAUGAGGAUCACCCAUGUCCUCAUUUGCUCGUCUUAU [Sensor 3 - 28] (Eterna round: R96, puzzle: Sensor v3, turn-off variant 2) | – | – | – | 87.4 nM | 472 nM | 91.9 nM
AGUAACUAUCACGAAAGUGAUAGUUACACAAGCAGUGAUACAUGAGGAUCACCCAUGUCCUCAUUUGCUCGUCUUAU [Sensor 3 - 28] (puzzle: Sensor v3, turn-off variant 2) | 83.6 nM | 698 nM | 91 nM | – | – | –
AGUAAGCUAGGAUAUGCUUUGGGAAAGCAUUCCUUCGAUAAACUUGAGGAUCACCCAAGUAGAAGGAGCUUACU [jl-ex2.4.51 ViennaUCT mod] (Eterna round: R97, puzzle: Exclusion 2) | – | – | – | 22.9 nM | – | 12 nM
AGUAAUGUAUAAGGAUAUCUCGCAAAUAAAGGCAGAGAAGGUAUACCCACUUGAGGAUCACCCAAGUCUCGUGUGCCUGGUGGA [Mutated MS2 EX1.30] (Eterna round: R96, puzzle: Exclusion NG 1) | – | – | – | 23 nM | 20.1 nM | 25.1 nM
AGUACUAACACGAAAGUGUUAGUACAAUAAGCUUGUGACACAUGAGGAUCACCCAUGUCCUCAUAAGCUCGUCUUAU [salish99_TOv2_r3_046] (puzzle: Sensor v3, turn-off variant 2) | 23.9 nM | 656 nM | 25.6 nM | – | – | –
AGUACUAACACGAAAGUGUUAGUACUAUAAGCUUGUGUUACAUGAGGAUCACCCAUGUCCUCAUAAGCUCGUCUUGU [Mat - Sensor v3 - Turn-off var 2 - D104] (puzzle: Sensor v3, turn-off variant 2) | 46.4 nM | 48.7 nM | 54.4 nM | – | – | –
AGUACUAACACGAAGGUGUUAGUACAAUAAGCUUGUGAAACAUGAGGAUCACCCAUGUCCUCAUAAGCUCGUCUUAU [salish99_TOv2_r3_033] (puzzle: Sensor v3, turn-off variant 2) | 17.5 nM | 702 nM | 17.6 nM | – | – | –
AGUACUAACACGAGAGUGUUAGUACAAUAAGCUUGUGGAACAUGAGGAUCACCCAUGUCCUCAUAAGCUCGUCUUAU [Mat - Sensor v3 - Turn-off var 2 - D99] (puzzle: Sensor v3, turn-off variant 2) | 15.2 nM | 70.3 nM | 13.4 nM | – | – | –
AGUACUAACACGGUAGUGUUAGUACAAUAAGCUUGUGAAACAUGAGGAUCACCCAUGUCCUCAUAAGCUCGUCUUAU [salish99_TOv2_r3_057] (puzzle: Sensor v3, turn-off variant 2) | 17.6 nM | 370 nM | 15.3 nM | – | – | –
AGUACUAACACGUAUGUGUUAGUACAAUAAGCUUGUGAAACAUGAGGAUCACCCAUGUCCUCAUAAGCUCGUCUUAU [salish99_TOv2_r3_066] (puzzle: Sensor v3, turn-off variant 2) | 18.1 nM | 764 nM | 15 nM | – | – | –
AGUACUAACACGUCUGUGUUAGUACAAUAAGCUUGUGAAACAUGAGGAUCACCCAUGUCCUCAUAAGCUCGUCUUAU [salish99_TOv2_r3_079] (puzzle: Sensor v3, turn-off variant 2) | 17.2 nM | 749 nM | 16.1 nM | – | – | –
AGUACUUUCACGAAAGUGAAAGUACAAUAAGCUUGUGGAACAUGAGGAUCACCCAUGUCCUCAUAAGCUCGUCUUAU [Mat - Sensor v3 - Turn-off var 2 - D32] (puzzle: Sensor v3, turn-off variant 2) | 17.3 nM | 72.5 nM | 15.5 nM | – | – | –
AGUAGAUCUACGCUUGCGUGGAUCUGCAAAGCAGGUGUUACAUGAGGAUCACCCAUGUCCUCAUUUGCUCGUCUUAG [JL turnoff v2 99.08] (puzzle: Sensor v3, turn-off variant 2) | 71.8 nM | 563 nM | 65.1 nM | – | – | –
AGUAGAUCUACGCUUGCGUGGAUCUGCAAUGCAAGUGUUACAUGAGGAUCACCCAUGUCCUCAUUUGCUCGUCUUAU [JL turnoff v2 99.04] (puzzle: Sensor v3, turn-off variant 2) | 42.2 nM | 108 nM | 40.9 nM | – | – | –

Sequence | apparent KD of MS2 coat protein [1] | apparent KD of MS2 coat protein [2] | apparent KD of MS2 coat protein [3] | apparent KD of MS2 coat protein (input ligand: FMN 200 uM) | apparent KD of MS2 coat protein [4] | apparent KD of MS2 coat protein (input ligand: none)
AGUAGAUCUACGCUUGCGUGGAUCUGCAAUGUAGGUGUUACAUGAGGAUCACCCAUGUCCUCAUUUGCUCGUCUUAG [JL turnoff v2 99.10] (puzzle: Sensor v3, turn-off variant 2) | 259 nM | 810 nM | – | – | – | –
AGUAGGUCUACCUUGGUGGAUCUGCAUUAUGCAAGUGAUACAUGAGGAUCACCCAUGUCCUCAUUUGCUCGUCUUAU [JL turnoff v2 99.24] (puzzle: Sensor v3, turn-off variant 2) | 17.3 nM | 242 nM | 16.1 nM | – | – | –
AGUAGGUCUACCUUGGUGGAUCUGCAUUAUGCAAGUGUUACAUGAGGAUCACCCAUGUCCUCAUUUGCUCGUCUUAU [JL turnoff v2 99.23] (puzzle: Sensor v3, turn-off variant 2) | 37.1 nM | 130 nM | 36.2 nM | – | – | –
AGUAGUAGUAUCCGAUCCUACAUGAGGAUCACCCAUGUAGCUAGACGUGCACGCGAUGCGCGUCAGACUACCAGAUG [salish99_TOv1_r3_042] (puzzle: Sensor v3, turn-off variant 1) | 184 nM | 159 nM | 240 nM | – | – | –
AGUAGUAGUAUCCGAUCCUACAUGAGGAUCACCCAUGUAGCUAGACGUGCGCGCGAUGCUCGUCAGACUACCAGAUG [salish99_TOv1_r3_047] (puzzle: Sensor v3, turn-off variant 1) | 159 nM | 198 nM | 276 nM | – | – | –
AGUAGUAGUAUCCGAUCCUACAUGAGGAUCACCCAUGUAGGUAGACGUGCACGCGAUGCUCGUCAGACUACCAGAUG [salish99_TOv1_r3_039] (puzzle: Sensor v3, turn-off variant 1) | 12.1 nM | 11.4 nM | 13.4 nM | – | – | –
AGUAGUGGUAUCCGAUCCUACAUGAGGAUCACCCAUGUAGCUAGACGUGCACGCGAUGCUCGUCAGACUACCAGAUG [salish99_TOv1_r3_048] (puzzle: Sensor v3, turn-off variant 1) | 218 nM | 221 nM | 184 nM | – | – | –
AGUAGUUCAGGAUAUGAUGUUAAGUACAUGAGGAUCACCCAUGUAGGUCCUGGAUUUACAUCAGAAGGGAAUAACU [JR_Ex5_Sub083] (Eterna round: R97, puzzle: Exclusion 5) | – | – | – | 60.4 nM | – | 23.6 nM
AGUCAGGCGGUAGGAUAUCCAAACCGAGUGACCCUUUCAUAACAUGAGGAUCACCCAUGUCGGUGGGAGAAGGGCCGUAAGGCA [Mat - Exclusion NG 2 - Mod of JL - D66] (Eterna round: R96, puzzle: Exclusion NG 2) | – | – | – | 127 nM | 52.8 nM | 56.6 nM
AGUCAGGCGGUAGGAUAUCCAAAUCGAGUGACCCUCUCAUAACAUGAGGAUCACCCAUGUCGGUGGGAGAAGGGCCGUACGGCG [JL ViennaUCT Atra mod] (Eterna round: R96, puzzle: Exclusion NG 2) | – | – | – | 108 nM | 53.8 nM | 47.8 nM
AGUCCGUCAGGAUAUGCAAUUGUGGACAUGAGGAUCACCCAUGUAACGUGGGCUUGGUUUGUAGAAGGGACGUGCA [EX5 #91] (Eterna round: R97, puzzle: Exclusion 5) | – | – | – | 351 nM | – | 442 nM
AGUCCUAACACGAAAGUGUUAGUACAAUAAGCUUGUGAAACAUGAGGAUCACCCAUGUCCUCAUAAGCUCGUCUUAU [salish99_TOv2_r3_015] (Eterna round: R96, puzzle: Sensor v3, turn-off variant 2) | – | – | – | 15.3 nM | 449 nM | 17.7 nM
AGUCCUAACACGAAAGUGUUAGUACAAUAAGCUUGUGAAACAUGAGGAUCACCCAUGUCCUCAUAAGCUCGUCUUAU [salish99_TOv2_r3_015] (puzzle: Sensor v3, turn-off variant 2) | 16.6 nM | 896 nM | 16.9 nM | – | – | –
AGUCCUGGAGUUAGGAUAUGAAGUAUCACUGCACUUCAGAAGGGACUUGAGGAUCACCCAAGUAGCCGUGAGGG [salish99_bmod_ex4_r4_003] (Eterna round: R97, puzzle: Brourd's mod of Exclusion 4) | – | – | – | 108 nM | – | 56.7 nM
AGUCCUGGAGUUAGGAUAUGGAGUAUCACUGCGCUUCAGAAGGGACUUGAGGAUCACCCAAGUAGCCGUGAGGG [salish99_bmod_ex4_r4_005] (Eterna round: R97, puzzle: Brourd's mod of Exclusion 4) | – | – | – | 98.5 nM | – | 59.4 nM
